From the Human Domainome abundance scans (Beltran et al. 2025)
± gives the uncertainty stated by the source.

B1: Transcription elongation factor A N-terminal and central domain-containing protein, residues 30 to 77; numbered along this chain, Q8N8B7 (parent)
chain: LTELETIYVTKEHLQETDVVRAVYRVLKNCPSVALKKKAKCLLSKWKA

Variants of: B1
Test: abundance fitness (aPCA) (normalised: wild type 0, dead -1); higher = more abundant; growth selection in yeast, the domain comes from the species named
Settings: Homo sapiens

Which abundance fitness does the source give for LTVLETIYVTKEHLQETDVVRAVYRVLKNCPSVALKKKAKCLLSKWKA [E3V] here?
Its abundance fitness is -0.102 ± 0.081.

For LTDLETIYVTKEHLQETDVVRAVYRVLKNCPSVALKKKAKCLLSKWKA [E3D], which abundance fitness is on record?
The abundance fitness was -0.209 ± 0.12.

For LTNLETIYVTKEHLQETDVVRAVYRVLKNCPSVALKKKAKCLLSKWKA [E3N], which abundance fitness is on record?
Its abundance fitness is -0.001 ± 0.46.

For LTELETIYVTKEHLQETDVVRAVYRVLKNCPSVALKKKAKCLWSKWKA [L43W], which abundance fitness is on record?
Its abundance fitness is 0.127 ± 0.087.

For LTELETIYVTKEHLQETDVVRAVYRVLKNCQSVALKKKAKCLLSKWKA [P31Q], which abundance fitness is on record?
Its abundance fitness is -0.017 ± 0.096.

For LTELETIYVTKEHLQETDVVRAVYRVLKNCASVALKKKAKCLLSKWKA [P31A], which abundance fitness is on record?
Its abundance fitness is 0.119 ± 0.065.

Which abundance fitness does the source give for LTELETIYVTKEHLQETDVVRAVYRVLKNCESVALKKKAKCLLSKWKA [P31E] here?
The abundance fitness was -0.357 ± 0.073.

Which abundance fitness does the source give for LTELETIYVTKEHLQETDVVRAVYRVLKNCRSVALKKKAKCLLSKWKA [P31R] here?
Its abundance fitness is 0.188 ± 0.062.

For LDELETIYVTKEHLQETDVVRAVYRVLKNCPSVALKKKAKCLLSKWKA [T2D], which abundance fitness is on record?
The abundance fitness was 0.107 ± 0.17.

For LMELETIYVTKEHLQETDVVRAVYRVLKNCPSVALKKKAKCLLSKWKA [T2M], which abundance fitness is on record?
The abundance fitness was -0.461 ± 0.16.

Which abundance fitness does the source give for LCELETIYVTKEHLQETDVVRAVYRVLKNCPSVALKKKAKCLLSKWKA [T2C] here?
Its abundance fitness is -0.501 ± 0.18.

Which abundance fitness does the source give for LTELETIYVTKEHLQETDVVRAVYRVLKNCPSVALKKKAKCLLSKYKA [W46Y] here?
The abundance fitness was -0.504 ± 0.18.

Which abundance fitness does the source give for LTELETIYVTKEHLQETDKVRAVYRVLKNCPSVALKKKAKCLLSKWKA [V19K] here?
Its abundance fitness is -0.39 ± 0.14.

For LTELETIYVTKEHLQETDIVRAVYRVLKNCPSVALKKKAKCLLSKWKA [V19I], which abundance fitness is on record?
The abundance fitness was -0.133 ± 0.16.

Which abundance fitness does the source give for LTELETIYVTKEHLQETDDVRAVYRVLKNCPSVALKKKAKCLLSKWKA [V19D] here?
The abundance fitness was -0.72 ± 0.38.

With LTELETIYVTKEHLQETDVVRAVYRGLKNCPSVALKKKAKCLLSKWKA [V26G] as the variant, how does the abundance fitness read?
Its abundance fitness is -0.095 ± 0.078.

For LTELETIYVTKEHLQETDVVRAVYRYLKNCPSVALKKKAKCLLSKWKA [V26Y], which abundance fitness is on record?
Its abundance fitness is 0.491 ± 0.17.

With LTELETIYVTKEHLQETDVVRAVYRKLKNCPSVALKKKAKCLLSKWKA [V26K] as the variant, how does the abundance fitness read?
Its abundance fitness is -0.149 ± 0.22.

For LTELETIYVTKEHLQETDVVRAVYRELKNCPSVALKKKAKCLLSKWKA [V26E], which abundance fitness is on record?
The abundance fitness was -0.836 ± 0.18.

With LTELETIYVTKEHLQETDVVRAVYRPLKNCPSVALKKKAKCLLSKWKA [V26P] as the variant, how does the abundance fitness read?
The abundance fitness was -0.131 ± 0.14.

For LTELETIYVTKEHLQETDVVRAVYRVLKNCPSVALKKKAKCLLSSWKA [K45S], which abundance fitness is on record?
The abundance fitness was -0.55 ± 0.11.

With LTELETIYVTKEHLQETDVVRAVYRVLKNCPSVALKKKAKCLLSIWKA [K45I] as the variant, how does the abundance fitness read?
The abundance fitness was -1.01 ± 0.4.

For LTELETIYVTKEHLQETDVVRAVYRVLKNCPSVALKKKAKCLLSYWKA [K45Y], which abundance fitness is on record?
The abundance fitness was -0.1 ± 0.21.

Which abundance fitness does the source give for LTELETIYVTKEHLQETDVVRAVYRVLKNCPSVALKKKAKCLLSNWKA [K45N] here?
The abundance fitness was -0.361 ± 0.14.

Which abundance fitness does the source give for LTELETIYVTKEHLQETDVVRAVYRVLKNCPSVALKKKAKCLLAKWKA [S44A] here?
Its abundance fitness is -0.232 ± 0.11.

With LTELETIYVTKEHLQETDVVRAVYRVLKNCPSVALKKKAKCLLDKWKA [S44D] as the variant, how does the abundance fitness read?
Its abundance fitness is -0.537 ± 0.18.

For LTELETIYVTKEHLQETDVVRAVYRVLKNCPSVALKKKAKCLLMKWKA [S44M], which abundance fitness is on record?
The abundance fitness was -0.148 ± 0.15.

With LTELETIYVTKEHLQETDVVRAVYRVLKNCPSVALKWKAKCLLSKWKA [K37W] as the variant, how does the abundance fitness read?
The abundance fitness was -0.68 ± 0.11.

For LTELETIYVTKEHLQETDVVRAVYRVLKNCPSVALKSKAKCLLSKWKA [K37S], which abundance fitness is on record?
The abundance fitness was -0.346 ± 0.092.

Which abundance fitness does the source give for LTELETIYVTKEHLQETDVVRAVYRVLKNCPSVALKPKAKCLLSKWKA [K37P] here?
Its abundance fitness is -1.02 ± 0.15.

For LTELETIYVTKEHLQETDVVRAVYRVLKNCPSVALKTKAKCLLSKWKA [K37T], which abundance fitness is on record?
Its abundance fitness is -0.574 ± 0.1.

Which abundance fitness does the source give for LTELETIYVTKEHLDETDVVRAVYRVLKNCPSVALKKKAKCLLSKWKA [Q15D] here?
Its abundance fitness is -0.27 ± 0.13.

Which abundance fitness does the source give for LTELETIYVTKEHLIETDVVRAVYRVLKNCPSVALKKKAKCLLSKWKA [Q15I] here?
The abundance fitness was -0.46 ± 0.15.

With LTELETIYVTKEHLQETDVVRAVYRVLTNCPSVALKKKAKCLLSKWKA [K28T] as the variant, how does the abundance fitness read?
Its abundance fitness is -0.169 ± 0.093.

Which abundance fitness does the source give for LTELETIYVTKEHLQETDVVRAVYRVLKNCPSNALKKKAKCLLSKWKA [V33N] here?
Its abundance fitness is -0.279 ± 0.2.

For LTELETIYVTKEHLQETDVVRAVYRVLKNCPSFALKKKAKCLLSKWKA [V33F], which abundance fitness is on record?
The abundance fitness was 0.427 ± 0.33.

For LTELETIYVTKEHLQETDVVRAVYRVLKNCPSWALKKKAKCLLSKWKA [V33W], which abundance fitness is on record?
Its abundance fitness is -0.096 ± 0.08.

For LTELETIYVTKEHLQETDVVRAVYRVLKNCPSVALVKKAKCLLSKWKA [K36V], which abundance fitness is on record?
Its abundance fitness is 0.066 ± 0.075.

With LTELETIYVTKEHLQETDVVRAVYRVLKNCPSVALWKKAKCLLSKWKA [K36W] as the variant, how does the abundance fitness read?
Its abundance fitness is 0.113 ± 0.094.

With LTELETIYVTKEHLQETDVVRAVYRVLKNCPSVALSKKAKCLLSKWKA [K36S] as the variant, how does the abundance fitness read?
Its abundance fitness is -0.609 ± 0.097.

Which abundance fitness does the source give for LTELETIYVTKEHLQETDVVRAEYRVLKNCPSVALKKKAKCLLSKWKA [V23E] here?
The abundance fitness was -0.584 ± 0.11.

With LTELETIYVTKEHLQETDVVRADYRVLKNCPSVALKKKAKCLLSKWKA [V23D] as the variant, how does the abundance fitness read?
The abundance fitness was -0.578 ± 0.16.

With LTELETIYTTKEHLQETDVVRAVYRVLKNCPSVALKKKAKCLLSKWKA [V9T] as the variant, how does the abundance fitness read?
Its abundance fitness is 0.087 ± 0.12.

Which abundance fitness does the source give for LTEKETIYVTKEHLQETDVVRAVYRVLKNCPSVALKKKAKCLLSKWKA [L4K] here?
The abundance fitness was 0.272 ± 0.094.

Which abundance fitness does the source give for LTEFETIYVTKEHLQETDVVRAVYRVLKNCPSVALKKKAKCLLSKWKA [L4F] here?
The abundance fitness was -0.044 ± 0.1.

With LTELETIYVTKEHLQETDVVRKVYRVLKNCPSVALKKKAKCLLSKWKA [A22K] as the variant, how does the abundance fitness read?
Its abundance fitness is 0.082 ± 0.11.

Which abundance fitness does the source give for LTELETIYVTKEHLQETDVVRVVYRVLKNCPSVALKKKAKCLLSKWKA [A22V] here?
The abundance fitness was -0.37 ± 0.079.

For LTELETIYVTKEHLQETDVVRGVYRVLKNCPSVALKKKAKCLLSKWKA [A22G], which abundance fitness is on record?
Its abundance fitness is -0.046 ± 0.066.

With LTELETIYVTKEHLQETDVVRAVYRVLKNCPSVFLKKKAKCLLSKWKA [A34F] as the variant, how does the abundance fitness read?
The abundance fitness was -0.305 ± 0.32.

Which abundance fitness does the source give for LTELETIYVTKEHLQETDVVRAVYRVLKNCPSVHLKKKAKCLLSKWKA [A34H] here?
The abundance fitness was -0.057 ± 0.23.

Which abundance fitness does the source give for LTELETIYVTKEHLQETDVVRAVYRVLKNCPSVNLKKKAKCLLSKWKA [A34N] here?
The abundance fitness was 0.266 ± 0.17.

Which abundance fitness does the source give for LTELETIYVTKEHLQETDVVRAVYRVLKNCPSVGLKKKAKCLLSKWKA [A34G] here?
Its abundance fitness is -0.028 ± 0.075.

With LTELPTIYVTKEHLQETDVVRAVYRVLKNCPSVALKKKAKCLLSKWKA [E5P] as the variant, how does the abundance fitness read?
The abundance fitness was -0.663 ± 0.15.

For LTELSTIYVTKEHLQETDVVRAVYRVLKNCPSVALKKKAKCLLSKWKA [E5S], which abundance fitness is on record?
Its abundance fitness is -0.809 ± 0.12.
